Kd, stoichiometry N (BCL7A per NCP) and decrease of binding affinity against wild type data for five substances are collected here from doi:10.1101/2023.03.17.532992.

Experiment [1] addresses nucleosome core particle (recombinant X. laevis histone octamer on 601 positioning DNA) (X. laevis). Put plainly: native gel or EMSA. On the technique in general: In EMSA bound probe runs differently from free probe, usually more slowly.
Experiment [2] shares this target. The experiment can be described thus: MST.
Experiment [3] shares this target. Put plainly: SEC-MALS. In general terms: In gel filtration, larger molecules generally elute earlier.
Experiment [4] has the same target. Put plainly: AUC.

In general, Kd refers to the concentration at which binding is half-saturated. Take “BCL7C, full length (from UniProt Q8WUZ0 1-217) (natural protein)”: the Kd in experiment [1] was determined as 124 nM. “BCL7A, full length human (isoform Q4VC05-2, 231 amino acids) (from UniProt Q4VC05-2 1-231) (natural protein)”: the figures for the Kd in experiment [1] and in experiment [2] were 218 nM and 230 nM, respectively. The stoichiometry N (BCL7A per NCP) in experiment [3] and in experiment [4] was 1 throughout. Turning to “BCL7A P78S mutant protein (from UniProt Q4VC05-2 1-231) (natural protein)”, the decrease of binding affinity against wild type in experiment [1] turned out to be 50%. Take “BCL7A (1-100) truncation mutant (from UniProt Q4VC05-2 1-100) (domain or fragment)”: the Kd in experiment [1] was determined as 437 nM. With “BCL7A R11S mutant protein (from UniProt Q4VC05-2 1-231) (natural protein)”, the decrease of binding affinity against wild type in experiment [1] stood at 50%.
